{"source": "the supplement of paper PMC11316812", "key": {"hTERT-HMEC": {"tested_on": "hTERT-HMEC", "experiment": "percentage of EdU-negative (G0-arrested) nuclei per well, 72 h; higher = more G0 arrest", "settings": "reference: sequence is the full UniProt precursor, the tested protein was the secreted form or ectodomain"}, "MCF7": {"tested_on": "MCF7", "experiment": "percentage of EdU-negative (G0-arrested) nuclei per well, 72 h; higher = more G0 arrest", "settings": "reference: sequence is the full UniProt precursor, the tested protein was the secreted form or ectodomain"}, "[1]": {"settings": "protein concentration 0.01575 µM"}, "[2]": {"settings": "protein concentration 0.1575 µM"}, "[3]": {"settings": "protein concentration 0.03125 µM"}, "[4]": {"settings": "protein concentration 0.3125 µM"}, "[5]": {"settings": "protein concentration 0.0245 µM"}, "[6]": {"settings": "protein concentration 0.0135 µM"}, "[7]": {"settings": "protein concentration 0.0225 µM"}}, "note": "± gives the standard deviation of the averaged measurements.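 Further: secreted proteins added to cultured cells, EdU pulse at the end, nuclei found by Hoechst imaging, EdU status from nuclear versus surrounding ring intensity ratio, PBS as neutral control.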"}
{"sequence": "MRTVVLTMKASVIEMFLVLLVTGVHSNKETAKKIKRPKFTVPQINCDVKAGKIIDPEFIVKCPAGCQDPKYHVYGTDVYASYSSVCGAAVHSGVLDNSGGKILVRKVAGQSGYKGSYSNGVQSLSLPRWRESFIVLESKPKKGVTYPSALTYSSSKSPAAQAGETTKAYQRPPIPGTTAQPVTLMQLLAVTVAVATPTTLPRPSPSAASTTSIPRPQSVGHRSQEMDLWSTATYTSSQNRPRADPGIQRQDPSGAAFQKPVGADVSLGLVPKEELSTQSLEPVSLGDPNCKIDLSFLIDGSTSIGKRRFRIQKQLLADVAQALDIGPAGPLMGVVQYGDNPATHFNLKTHTNSRDLKTAIEKITQRGGLSNVGRAISFVTKNFFSKANGNRSGAPNVVVVMVDGWPTDKVEEASRLARESGINIFFITIEGAAENEKQYVVEPNFANKAVCRTNGFYSLHVQSWFGLHKTLQPLVKRVCDTDRLACSKTCLNSADIGFVIDGSSSVGTGNFRTVLQFVTNLTKEFEISDTDTRIGAVQYTYEQRLEFGFDKYSSKPDILNAIKRVGYWSGGTSTGAAINFALEQLFKKSKPNKRKLMILITDGRSYDDVRIPAMAAHLKGVITYAIGVAWAAQEELEVIATHPARDHSFFVDEFDNLHQYVPRIIQNICTEFNSQPRN [Q6UXI7]", "values": [{"measurement": "percentage of EdU-negative", "setting": "hTERT-HMEC; [1]", "value": "5.15 ± 0.69", "unit": "%"}, {"measurement": "percentage of EdU-negative", "setting": "hTERT-HMEC; [2]", "value": "6.71 ± 1.1", "unit": "%"}, {"measurement": "percentage of EdU-negative", "setting": "MCF7; [1]", "value": "27 ± 0.45", "unit": "%"}, {"measurement": "percentage of EdU-negative", "setting": "MCF7; [2]", "value": "23.4 ± 0.87", "unit": "%"}]}
{"sequence": "MTSSLQRPWRVPWLPWTILLVSTAAASQNQERLCAFKDPYQQDLGIGESRISHENGTILCSKGSTCYGLWEKSKGDINLVKQGCWSHIGDPQECHYEECVVTTTPPSIQNGTYRFCCCSTDLCNVNFTENFPPPDTTPLSPPHSFNRDETIIIALASVSVLAVLIVALCFGYRMLTGDRKQGLHSMNMMEAAASEPSLDLDNLKLLELIGRGRYGAVYKGSLDERPVAVKVFSFANRQNFINEKNIYRVPLMEHDNIARFIVGDERVTADGRMEYLLVMEYYPNGSLCKYLSLHTSDWVSSCRLAHSVTRGLAYLHTELPRGDHYKPAISHRDLNSRNVLVKNDGTCVISDFGLSMRLTGNRLVRPGEEDNAAISEVGTIRYMAPEVLEGAVNLRDCESALKQVDMYALGLIYWEIFMRCTDLFPGESVPEYQMAFQTEVGNHPTFEDMQVLVSREKQRPKFPEAWKENSLAVRSLKETIEDCWDQDAEARLTAQCAEERMAELMMIWERNKSVSPTVNPMSTAMQNERNLSHNRRVPKIGPYPDYSSSSYIEDSIHHTDSIVKNISSEHSMSSTPLTIGEKNRNSINYERQQAQARIPSPETSVTSLSTNTTTTNTTGLTPSTGMTTISEMPYPDETNLHTTNVAQSIGPTPVCLQLTEEDLETNKLDPKEVDKNLKESSDENLMEHSLKQFSGPDPLSSTSSSLLYPLIKLAVEATGQQDFTQTANGQACLIPDVLPTQIYPLPKQQNLPKRPTSLPLNTKNSTKEPRLKFGSKHKSNLKQVETGVAKMNTINAAEPHVVTVTMNGVAGRNHSVNSHAATTQYANGTVLSGQTTNIVTHRAQEMLQNQFIGEDTRLNINSSPDEHEPLLRREQQAGHDEGVLDRLVDRRERPLEGGRTNSNNNNSNPCSEQDVLAQGVPSTAADPGPSKPRRAQRPNSLDLSATNVLDGSSIQIGESTQDGKSGSGEKIKKRVKTPYSLKRWRPSTWVISTESLDCEVNNNGSNRAVHSKSSTAVYLAEGGTATTMVSKDIGMNCL", "values": [{"measurement": "percentage of EdU-negative", "setting": "hTERT-HMEC; [3]", "value": "4.72 ± 0.9", "unit": "%"}, {"measurement": "percentage of EdU-negative", "setting": "hTERT-HMEC; [4]", "value": "6.26 ± 1.5", "unit": "%"}, {"measurement": "percentage of EdU-negative", "setting": "MCF7; [3]", "value": "26.3 ± 0.7", "unit": "%"}, {"measurement": "percentage of EdU-negative", "setting": "MCF7; [4]", "value": "24 ± 3.6", "unit": "%"}]}
{"sequence": "MGTPRIQHLLILLVLGASLLTSGLELYCQKGLSMTVEADPANMFNWTTEEVETCDKGALCQETILIIKAGTETAILATKGCIPEGEEAITIVQHSSPPGLIVTSYSNYCEDSFCNDKDSLSQFWEFSETTASTVSTTLHCPTCVALGTCFSAPSLPCPNGTTRCYQGKLEITGGGIESSVEVKGCTAMIGCRLMSGILAVGPMFVREACPHQLLTQPRKTENGATCLPIPVWGLQLLLPLLLPSFIHFS [Q9BY14]", "values": [{"measurement": "percentage of EdU-negative", "setting": "hTERT-HMEC; [5]", "value": "5.14 ± 0.066", "unit": "%"}, {"measurement": "percentage of EdU-negative", "setting": "hTERT-HMEC; protein concentration 0.245 µM", "value": "5.33 ± 0.8", "unit": "%"}, {"measurement": "percentage of EdU-negative", "setting": "MCF7; [5]", "value": "25.5 ± 2", "unit": "%"}, {"measurement": "percentage of EdU-negative", "setting": "MCF7; protein concentration 0.245 µM", "value": "26.5 ± 0.59", "unit": "%"}]}
{"sequence": "MDLRQFLMCLSLCTAFALSKPTEKKDRVHHEPQLSDKVHNDAQSFDYDHDAFLGAEEAKTFDQLTPEESKERLGKIVSKIDGDKDGFVTVDELKDWIKFAQKRWIYEDVERQWKGHDLNEDGLVSWEEYKNATYGYVLDDPDPDDGFNYKQMMVRDERRFKMADKDGDLIATKEEFTAFLHPEEYDYMKDIVVQETMEDIDKNADGFIDLEEYIGDMYSHDGNTDEPEWVKTEREQFVEFRDKNRDGKMDKEETKDWILPSDYDHAEAEARHLVYESDQNKDGKLTKEEIVDKYDLFVGSQATDFGEALVRHDEF", "values": [{"measurement": "percentage of EdU-negative", "setting": "hTERT-HMEC; [6]", "value": "5.58 ± 1.3", "unit": "%"}, {"measurement": "percentage of EdU-negative", "setting": "hTERT-HMEC; protein concentration 0.135 µM", "value": "7.65 ± 0.27", "unit": "%"}, {"measurement": "percentage of EdU-negative", "setting": "MCF7; [6]", "value": "22.72 ± 0.078", "unit": "%"}, {"measurement": "percentage of EdU-negative", "setting": "MCF7; protein concentration 0.135 µM", "value": "23.6 ± 3.3", "unit": "%"}]}
{"sequence": "MGALRPTLLPPSLPLLLLLMLGMGCWAREVLVPEGPLYRVAGTAVSISCNVTGYEGPAQQNFEWFLYRPEAPDTALGIVSTKDTQFSYAVFKSRVVAGEVQVQRLQGDAVVLKIARLQAQDAGIYECHTPSTDTRYLGSYSGKVELRVLPDVLQVSAAPPGPRGRQAPTSPPRMTVHEGQELALGCLARTSTQKHTHLAVSFGRSVPEAPVGRSTLQEVVGIRSDLAVEAGAPYAERLAAGELRLGKEGTDRYRMVVGGAQAGDAGTYHCTAAEWIQDPDGSWAQIAEKRAVLAHVDVQTLSSQLAVTVGPGERRIGPGEPLELLCNVSGALPPAGRHAAYSVGWEMAPAGAPGPGRLVAQLDTEGVGSLGPGYEGRHIAMEKVASRTYRLRLEAARPGDAGTYRCLAKAYVRGSGTRLREAASARSRPLPVHVREEGVVLEAVAWLAGGTVYRGETASLLCNISVRGGPPGLRLAASWWVERPEDGELSSVPAQLVGGVGQDGVAELGVRPGGGPVSVELVGPRSHRLRLHSLGPEDEGVYHCAPSAWVQHADYSWYQAGSARSGPVTVYPYMHALDTLFVPLLVGTGVALVTGATVLGTITCCFMKRLRKR [Q969P0]", "values": [{"measurement": "percentage of EdU-negative", "setting": "hTERT-HMEC; [7]", "value": "5.09 ± 0.17", "unit": "%"}, {"measurement": "percentage of EdU-negative", "setting": "hTERT-HMEC; protein concentration 0.225 µM", "value": "5.05 ± 0.19", "unit": "%"}, {"measurement": "percentage of EdU-negative", "setting": "MCF7; [7]", "value": "25 ± 1.3", "unit": "%"}, {"measurement": "percentage of EdU-negative", "setting": "MCF7; protein concentration 0.225 µM", "value": "26.5 ± 0.91", "unit": "%"}]}
{"sequence": "MLPAAMKGLGLALLAVLLCSAPAHGLWCQDCTLTTNSSHCTPKQCQPSDTVCASVRITDPSSSRKDHSVNKMCASSCDFVKRHFFSDYLMGFINSGILKVDVDCCEKDLCNGAAGAGHSPWALAGGLLLSLGPALLWAGP", "values": [{"measurement": "percentage of EdU-negative", "setting": "hTERT-HMEC; [7]", "value": "4.57 ± 0.15", "unit": "%"}, {"measurement": "percentage of EdU-negative", "setting": "hTERT-HMEC; protein concentration 0.225 µM", "value": "5.48 ± 0.5", "unit": "%"}, {"measurement": "percentage of EdU-negative", "setting": "MCF7; [7]", "value": "25.6 ± 3.3", "unit": "%"}, {"measurement": "percentage of EdU-negative", "setting": "MCF7; protein concentration 0.225 µM", "value": "26.7 ± 1.4", "unit": "%"}]}
{"sequence": "MPRPAPARRLPGLLLLLWPLLLLPSAAPDPVARPGFRRLETRGPGGSPGRRPSPAAPDGAPASGTSEPGRARGAGVCKSRPLDLVFIIDSSRSVRPLEFTKVKTFVSRIIDTLDIGPADTRVAVVNYASTVKIEFQLQAYTDKQSLKQAVGRITPLSTGTMSGLAIQTAMDEAFTVEAGAREPSSNIPKVAIIVTDGRPQDQVNEVAARAQASGIELYAVGVDRADMASLKMMASEPLEEHVFYVETYGVIEKLSSRFQETFCALDPCVLGTHQCQHVCISDGEGKHHCECSQGYTLNADKKTCSALDRCALNTHGCEHICVNDRSGSYHCECYEGYTLNEDRKTCSAQDKCALGTHGCQHICVNDRTGSHHCECYEGYTLNADKKTCSVRDKCALGSHGCQHICVSDGAASYHCDCYPGYTLNEDKKTCSATEEARRLVSTEDACGCEATLAFQDKVSSYLQRLNTKLDDILEKLKINEYGQIHR", "values": [{"measurement": "percentage of EdU-negative", "setting": "hTERT-HMEC; [7]", "value": "4.9 ± 0.095", "unit": "%"}, {"measurement": "percentage of EdU-negative", "setting": "hTERT-HMEC; protein concentration 0.225 µM", "value": "5.61 ± 0.67", "unit": "%"}, {"measurement": "percentage of EdU-negative", "setting": "MCF7; [7]", "value": "22.2 ± 2.4", "unit": "%"}, {"measurement": "percentage of EdU-negative", "setting": "MCF7; protein concentration 0.225 µM", "value": "26.2 ± 2", "unit": "%"}]}
